Consider 54 variants from the RNAGym collection of RNA variant scans (doi:10.7554/elife.80360).

The labels stand for the following.
B1: Twister Ribozyme (parent)
chain: AACACUGCCAAUGCCGGUCCCAAGCCCGGAUAAAAGUGGAGGGGGCGG

In the data set the parent is B1. Kind of data set: self-cleavage, relative activity (ratio to wild type); higher = more cleavage; co-transcriptional.
On to AACACUGCCAAUGCGGGUCCCAAGCCCGGAUAAAAAUGGAGGGGGCGG [C15G G36A], for which the self-cleavage turned out to be 0.0815.
The result for AACACUGCCAAUGCAGGUCCCAAGCCCGGAUAAAAAUGGAGGGGGCGG [C15A G36A] reads 0.165; that for AACACUGCCAAUGCGGGGCCCAAGCCCGGAUAAAAGUGGAGGGGGCGG [C15G U18G], 0.0953.
The result for AACACUGCCAAUGCAGGUCCCAAACCCGGAUAAAAGUGGAGGGGGCGG [C15A G24A] reads 0.0695.
The result for AACACUGCCAAUGCAGGUCCCAACCCCGGAUAAAAGUGGAGGGGGCGG [C15A G24C] reads 0.0841; that for AACACUGCCAAUGCGGGUCCCAAGCCCGGAUAAAAGUGGAGGGUGCGG [C15G G44U], 0.075; that for AACACUGCCAAUGCGGGUCCCAAGCCCGGAUAAAAGUGGAGGGCGCGG [C15G G44C], 0.0763.
In the case of AACACUGCCAAUGCGGGUCCCAAGCCCGGAUAAAAGUGGAGGAGGCGG [C15G G43A], the self-cleavage turned out to be 0.0569.
As for AACACUGCCAAUGCGGGUCCCAAGCCCGGAUACAAGUGGAGGGGGCGG [C15G A33C], the self-cleavage was determined as 0.0859.
The result for AACACUGCCAAUGCGGGUCCCAAGCCCGGAUAGAAGUGGAGGGGGCGG [C15G A33G] reads 0.0911.
The result for AACACUGCCAAUGCGGGUCCCAAGCACGGAUAAAAGUGGAGGGGGCGG [C15G C26A] reads 0.0956.
The result for AACACUGCCAAUGCGGGUCCCAAGCUCGGAUAAAAGUGGAGGGGGCGG [C15G C26U] reads 0.0429; that for AACACUGCCAAUGCAGGUCCCAAGCCCGGAAAAAAGUGGAGGGGGCGG [C15A U31A], 0.706.
For the variant AACACUGCCAAUGCAGGUCCCAAGCCCGGAGAAAAGUGGAGGGGGCGG [C15A U31G], the self-cleavage came to 0.76.
AACACUGCCAAUGCAAGUCCCAAGCCCGGAUAAAAGUGGAGGGGGCGG [C15A G16A]: the self-cleavage was 0.351.
The result for AACACUGCCAAUGCACGUCCCAAGCCCGGAUAAAAGUGGAGGGGGCGG [C15A G16C] reads 0.264; that for AACACUGCCAAUGCAUGUCCCAAGCCCGGAUAAAAGUGGAGGGGGCGG [C15A G16U], 0.34.
The result for AACACUGCCAAUGCAGGUCCCCAGCCCGGAUAAAAGUGGAGGGGGCGG [C15A A22C] reads 0.533; that for AACACUGCCAAUGCAGGUCCCAAGCCCGGAUAAAAGUGGAGUGGGCGG [C15A G42U], 0.14.
Regarding AACACUGCCAAUGCAGGUCCCAAGCCCGGAUAAAAGUGGAGCGGGCGG [C15A G42C], the self-cleavage was 0.182.
The result for AACACUGCCAAUGCAGGUCGCAAGCCCGGAUAAAAGUGGAGGGGGCGG [C15A C20G] reads 0.0632.
For the variant AACACUGCCAAUGCAGGUCCCAAGCCCGGAUAAAAGUGGAGGGGCCGG [C15A G45C], the self-cleavage came to 0.352.
For AACACUGCCAAUGCAGGUCCCAAGCCCGGAUAAAAGUGGAGGGGACGG [C15A G45A], the self-cleavage worked out at 0.478.
The result for AACACUGCCAAUGCGGGUCCCAAGCCCGGAUAAAAGUGCAGGGGGCGG [C15G G39C] reads 0.104.
The result for AACACUGCCAAUGCGGGUCCCAAGCCCGGAUAAAAGUGUAGGGGGCGG [C15G G39U] reads 0.0441.
With AACACUGCCAAUGUCGGUCCCAAGCCCGGACAAAAGUGGAGGGGGCGG [C14U U31C], the self-cleavage is 1.22.
The result for AACACUGCCAAUGCAGGUCCCAAGCCCGGAUAAGAGUGGAGGGGGCGG [C15A A34G] reads 0.422.
In the case of AACACUGCCAAUGCAGGUCCCAAGCCCGGAUAACAGUGGAGGGGGCGG [C15A A34C], the self-cleavage came out at 0.156.
Regarding AACACUGCCAAUGCGGGUCCCAAGCCCGGAUAAAAGUGGGGGGGGCGG [C15G A40G], the self-cleavage was 0.114.
The result for AACACUGCCAAUGCGGGUCCCAAGCCCGGAUAAAAGUGGCGGGGGCGG [C15G A40C] reads 0.0616; that for AACACUGCCAAUGCAGGUCCCAAGCCCGGAUAAAAGUGGAGGGGGAGG [C15A C46A], 0.565.
The result for AACACUGCCAAUGCGGGUCCCAAGCCCGGAUGAAAGUGGAGGGGGCGG [C15G A32G] reads 0.0996.
The result for AACACUGCCAAUGCGGGUCCCAAGCCCGGAUUAAAGUGGAGGGGGCGG [C15G A32U] reads 0.0633; that for AACACUGCCAAUGCGGGUCCCCAGCCCGGAUAAAAGUGGAGGGGGCGG [C15G A22C], 0.0849; that for AACACUGCCAAUGCGGGUCCCAAGCCCGUAUAAAAGUGGAGGGGGCGG [C15G G29U], 0.11.
With AACACUGCCAAUGCAGGUCCCAAGCCCGGAUAAAAGUGGUGGGGGCGG [C15A A40U], the self-cleavage came out at 0.116.
As to AACACUGCCAAUGCAGGUCCCAAGCCCGGAUAAAAGUGGAGGAGGCGG [C15A G43A], the self-cleavage came out at 0.299.
For the variant AACACUGCCAAUGCAGCUCCCAAGCCCGGAUAAAAGUGGAGGGGGCGG [C15A G17C], the self-cleavage came out at 0.0439.
The result for AACACUGCCAAUGCGGGUACCAAGCCCGGAUAAAAGUGGAGGGGGCGG [C15G C19A] reads 0.0812; that for AACACUGCCAAUGCGGGUGCCAAGCCCGGAUAAAAGUGGAGGGGGCGG [C15G C19G], 0.0636.
The result for AACACUGCCAAUGCAGGUCCCAAGUCCGGAUAAAAGUGGAGGGGGCGG [C15A C25U] reads 0.436; that for AACACUGCCAAUGCAGGUCCCAAGACCGGAUAAAAGUGGAGGGGGCGG [C15A C25A], 0.0919.
The result for AACACUGCCAAUGCAGGUCCCAAGCCCGGAUAAAAGUGGAGGGGGCUG [C15A G47U] reads 0.332.
AACACUGCCAAUGCAGGUCCCAAGCCCGGAUAAAAGUGGAGGGGGCCG [C15A G47C]: the self-cleavage was 0.253.
The result for AACACUGCCAAUGCGGGUCCUAAGCCCGGAUAAAAGUGGAGGGGGCGG [C15G C21U] reads 0.0717.
The result for AACACUGCCAAUGCGGGUCCGAAGCCCGGAUAAAAGUGGAGGGGGCGG [C15G C21G] reads 0.0959; that for AACACUGCCAAUGCGGGUCCAAAGCCCGGAUAAAAGUGGAGGGGGCGG [C15G C21A], 0.077; that for AACACUGCCAAUGCGGGUCACAAGCCCGGAUAAAAGUGGAGGGGGCGG [C15G C20A], 0.0716.
The result for AACACUGCCAAUGCAGGUCCGAAGCCCGGAUAAAAGUGGAGGGGGCGG [C15A C21G] reads 0.0777; that for AACACUGCCAAUGCAGGUCCCAAGCCCGGAUAAAAGUGGACGGGGCGG [C15A G41C], 0.16.
Turning to AACACUGCCAAUGCAGGUCCCAAGCCCGGAUAAAAGUGGAAGGGGCGG [C15A G41A], the self-cleavage is 0.189.
For the variant AACACUGCCAAUGCAGGUCCCAAGCCCGGAUAUAAGUGGAGGGGGCGG [C15A A33U], the self-cleavage came to 0.541.
The result for AACACUGCCAAUGCAGGUCCCAAGCCCGGAUAGAAGUGGAGGGGGCGG [C15A A33G] reads 0.578; that for AACACUGCCAAUGUCGGUCCCAAGCCCGGAUAAAAGUGGAGGGGGCGA [C14U G48A], 1.1.
